± gives the standard deviation of the averaged measurements.
system: Saccharomyces cerevisiae; experiment: protein stability index of tFT-peptide fusion (C-terminal peptide) (PSI (0-1 scale)); higher = more stable (slower turnover); conditions: genetic background: wild type; temperature: 30 C
Procedure: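 Multiplexed protein stability (MPS) profiling in S. cerevisiae. Random 12-aa peptides (tFT-X12 library) are fused to the C-terminus of a sfGFP-mCherry tandem fluorescent timer, after mCherry and a GGGS linker. Cells are FACS-sorted into 8 mCherry/sfGFP bins and deep-sequenced. The protein stability index (PSI) is the read-weighted bin average, scaled from 0 (unstable) to 1 (stable). Only peptides with >10 reads are reported; cells were grown at 30 °C in SC-His with glucose.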
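Further: PSI is a weighted mean of sequencing reads over stability bins, variants kept only with over 10 reads, mCherry proximal and sfGFP distal, peptide attached via GGGS linker.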

Sequence | protein stability index
ELSCMDGPLLCP | 0.683 ± 0.059
ELSPLSYRNRTA | 0.6835 ± 0.001
EMEHANDARRVS | 0.67 ± 0.015
ENERRESLTMVR | 0.786 ± 0.1
ENQGQKKKKKKR | 0.733 ± 0.12
EPDISTRGPGWT | 0.74 ± 0.026
EPEPALTSAPPA | 0.715 ± 0.023
EPGREKRRIVQK | 0.679 ± 0.042
EPIMVKKACTDG | 0.645 ± 0.029
EQLRLQSIECGE | 0.631 ± 0.0073
EQNKQPEKETYN | 0.625 ± 0.076
EQSLRHKCRPSV | 0.596 ± 0.014
EREGGWEVNKWR | 0.757 ± 0.079
ERGKREMRKNLT | 0.681 ± 0.018
ERGKRKASHRRR | 0.683 ± 0.041
ERIIGNRCYVRK | 0.666 ± 0.039
ERRKSKRKNENE | 0.674 ± 0.0084
ERRQADRHRTTP | 0.766 ± 0.05
ERSRKVSWRFIR | 0.6746 ± 0.0033
ERYKHKKMKNNE | 0.699 ± 0.097
ESAARGWSSGVG | 0.726 ± 0.079
ESAVHRTRRIPY | 0.7888 ± 0.0046
ESGRGGVGVGWG | 0.709 ± 0.096
ESLMYGYWGFAR | 0.727 ± 0.045
ESRRKRRVAGPN | 0.7072 ± 0.0066

Sequence | protein stability index
ESYGIVEEGVYS | 0.652 ± 0.082
ETKRRQEQNIVR | 0.721 ± 0.082
ETKSDRHDRTGT | 0.655 ± 0.015
ETVNGVGSRWGF | 0.741 ± 0.1
EVALDRLKNRGG | 0.671 ± 0.028
EVCPRGIAGGVV | 0.678 ± 0.013
EVDHLPHQVFRY | 0.6671 ± 0.0021
EVERKNKESGKI | 0.717 ± 0.011
EVGMDLTTGPIS | 0.619 ± 0.056
EVGQYVEWSCLL | 0.671 ± 0.019
EVLFWRGVSRME | 0.725 ± 0.16
EVRWIGLPMCTS | 0.6524 ± 0.0023
EVVFVARSGSGV | 0.654 ± 0.008
EVVRTWAVVEGG | 0.646 ± 0.11
EWGDLDGRGEPR | 0.74 ± 0.0075
EYGQTDENKMRM | 0.687 ± 0.096
EYIWLSLGSVYI | 0.624 ± 0.05
EYRKSVERLRVD | 0.687 ± 0.053
EYTIKTENKYKI | 0.747 ± 0.13
EYVKFGMEHILE | 0.675 ± 0.024
FAFRGFLIGCGV | 0.54 ± 0.011
FAGAEFCGPVGV | 0.629 ± 0.0024
FAKLDRVGACRW | 0.764 ± 0.013
FALSSSLIRAFL | 0.726 ± 0.00088
FALYVHHSLSFG | 0.685 ± 0.02

Sequence | protein stability index
FCGACFRGDVLV | 0.67 ± 0.017
FCGGSWTDGFGW | 0.737 ± 0.028
FCGLCCDPNRVP | 0.708 ± 0.036
FCHLGSPATDFR | 0.646 ± 0.013
FCIRLFLLPLCP | 0.5869 ± 0.0055
FCLDLLVGLVFL | 0.546 ± 0.035
FCLGPSLSSSSL | 0.714 ± 0.027
FCLGWWVAVCGL | 0.487 ± 0.04
FCPPLAFPPPLS | 0.743 ± 0.028
FCSMLPSHLPEA | 0.6972 ± 0.0027
FCYLCARMPYRS | 0.662 ± 0.13
FDAWSLASASLV | 0.741 ± 0.036
FDSGLTTHQRDA | 0.686 ± 0.029
FDSVAVLYSGGV | 0.66 ± 0.0078
FELEQNCESATS | 0.706 ± 0.013
FELVEAAYISEE | 0.626 ± 0.058
FESFHLENRGEK | 0.706 ± 0.04
FESRDMVGWFGG | 0.674 ± 0.019
FFCDFFYLSSHF | 0.716 ± 0.019
FFCILCAHWFPL | 0.589 ± 0.086
FFFLPSPTFLPP | 0.764 ± 0.046
FFGCVLRPCLRG | 0.72 ± 0.0076
FFGYLVDEGLWV | 0.738 ± 0.0084
FFKNAILFVSCE | 0.548 ± 0.049
FFLGAPVRQFFF | 0.582 ± 0.011

Sequence | protein stability index
FFLLGRGVCLGA | 0.663 ± 0.054
FFLRNRPPLCGQ | 0.665 ± 0.012
FFLSSLFPSFSS | 0.796 ± 0.044
FFRDDNRDHKRT | 0.689 ± 0.017
FFSFYPVYPLSA | 0.527 ± 0.021
FFSLISVFCPYP | 0.533 ± 0.065
FFWFFFLRFLFS | 0.568 ± 0.031
FGAGVWVGRVGG | 0.649 ± 0.048
FGARKVELRWMV | 0.53 ± 0.0092
FGCLGVLGSGRC | 0.728 ± 0.037
FGGMSGVLFRMV | 0.663 ± 0.054
FGLSVSSMSWNL | 0.714 ± 0.0078
FGLVYCSGLTVS | 0.54 ± 0.0079
FGSPVGSAGSCF | 0.647 ± 0.095
FGSVFMSFFLCS | 0.522 ± 0.037
FGTKHFGGWGGV | 0.745 ± 0.015
FGVGGAVGWRLR | 0.677 ± 0.052
FGVVLEGAGGGG | 0.702 ± 0.07
FHDVVSKKHSLK | 0.705 ± 0.032
FHLPLSSHDPLL | 0.747 ± 0.11
FHSLTDSSPPGL | 0.649 ± 0.022
FIFPPLFFSPVL | 0.788 ± 0.13
FIGGCYCSVKSL | 0.705 ± 0.047
